Source: patent US20220016257A1 (Daiichi Sankyo, published 2022)
Where a chain is given by its changes, count along the chain named. Each block holds one binder with its values, some of them ahead of it.

Assays:
[1] = target: T1, EC3-deleted human CDH6 (EC3 deletion mutant, on cells) (human, UniProt P55285 54-790); test: flow cytometry, 293α cells transiently expressing EC3-deleted hCDH6 (open) against untransfected cells (shaded), APC anti-human IgG F(ab')2
T1 construct: Full-length human CDH6 lacking EC3; Cloned in p3xFLAG-CMV-9; also called EC3-deleted hCDH6
T1 sequence: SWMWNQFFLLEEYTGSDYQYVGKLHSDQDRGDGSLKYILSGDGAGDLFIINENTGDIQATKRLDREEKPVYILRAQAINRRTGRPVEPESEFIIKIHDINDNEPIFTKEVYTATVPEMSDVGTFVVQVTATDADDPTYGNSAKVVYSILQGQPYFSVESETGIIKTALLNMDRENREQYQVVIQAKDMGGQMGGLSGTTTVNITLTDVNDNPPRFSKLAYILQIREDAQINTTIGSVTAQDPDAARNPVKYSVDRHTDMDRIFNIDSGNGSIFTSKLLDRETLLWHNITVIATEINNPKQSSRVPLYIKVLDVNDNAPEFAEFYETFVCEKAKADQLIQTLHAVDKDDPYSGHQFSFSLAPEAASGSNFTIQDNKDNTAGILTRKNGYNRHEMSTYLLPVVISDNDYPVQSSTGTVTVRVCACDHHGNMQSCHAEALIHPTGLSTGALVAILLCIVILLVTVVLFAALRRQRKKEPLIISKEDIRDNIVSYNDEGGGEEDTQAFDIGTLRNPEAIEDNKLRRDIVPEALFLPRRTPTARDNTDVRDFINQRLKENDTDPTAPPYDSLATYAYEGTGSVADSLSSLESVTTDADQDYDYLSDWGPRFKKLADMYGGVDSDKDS
Protocol: The cells were cultured overnight under conditions of 37° C. and 5% CO₂, and thereafter, a cell suspension was prepared. […] Thereafter, the cells were suspended by the addition of each of the 4 humanized hG019 antibodies (clone Nos: H01L02, H02L02, H02L03 and H04L02), which had been prepared in Example 5)-5-3, or the anti-CDH6 antibody NOV0712, which had been prepared in Reference Example 1, or human IgG1 (Calbiochem) as a negative control. The cells were left standing at 4° C. for 1 hour. The cells were washed twice with PBS supplemented with 5% FBS, and then suspended by the addition of APC-anti-human IgG goat F(ab′)2 (Jackson ImmunoResearch Laboratories, Inc.) that had been 500-fold diluted with PBS supplemented with 5% FBS. The cells were left standing at 4° C. for 1 hour. The cells were washed twice with PBS supplemented with 5% FBS, followed by detection using a flow cytometer (Canto II; BD Biosciences). The data was analyzed using FlowJo (TreeStar, Inc.). In the histograms of FIGS. 5-1 to 5-6, the abscissa depicts APC fluorescence intensity indicating the amount of the antibody bound, and the ordinate depicts cell count. […] Fluorescence intensity is enhanced when the antibody binds to full-length hCDH6 or each EC domain deletion mutant on the cell surface. The human IgG1 control binds to none of the transfected cells.

[2] = target: T2, human CDH6 (full-length, on cells) (human, UniProt P55285 54-790); test: competition flow cytometry on 786-O/hCDH6 cells, unlabeled antibody varied, competitor Alexa488-labeled H01L02 at 5 nM [lower panel]
T2 construct: also called hCDH6; full-length hCDH6
T2 sequence: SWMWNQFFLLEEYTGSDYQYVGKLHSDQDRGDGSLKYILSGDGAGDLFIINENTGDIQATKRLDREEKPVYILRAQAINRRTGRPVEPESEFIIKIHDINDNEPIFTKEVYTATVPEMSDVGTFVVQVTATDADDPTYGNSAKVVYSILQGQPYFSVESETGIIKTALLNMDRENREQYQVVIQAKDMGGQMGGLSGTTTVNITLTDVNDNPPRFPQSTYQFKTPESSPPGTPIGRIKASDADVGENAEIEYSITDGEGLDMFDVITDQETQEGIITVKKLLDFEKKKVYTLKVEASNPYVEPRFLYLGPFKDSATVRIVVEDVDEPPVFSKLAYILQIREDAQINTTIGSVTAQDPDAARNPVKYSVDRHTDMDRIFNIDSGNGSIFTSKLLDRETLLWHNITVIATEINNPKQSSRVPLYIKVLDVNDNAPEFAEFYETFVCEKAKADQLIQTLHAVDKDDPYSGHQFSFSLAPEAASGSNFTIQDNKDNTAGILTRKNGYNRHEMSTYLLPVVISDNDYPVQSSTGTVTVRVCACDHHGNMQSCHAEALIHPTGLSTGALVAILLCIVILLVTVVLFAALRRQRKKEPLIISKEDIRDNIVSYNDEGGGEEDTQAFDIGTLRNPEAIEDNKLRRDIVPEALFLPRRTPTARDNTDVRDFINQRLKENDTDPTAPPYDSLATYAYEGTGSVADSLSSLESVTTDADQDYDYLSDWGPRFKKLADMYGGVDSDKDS
Protocol: The cell suspension of the 786-O/hCDH6 stably expressing cell line produced in 6)-2-2-1 was centrifuged, and the supernatant was then removed. Thereafter, the cells were suspended by the addition of labeled NOV0712 or labeled H01L02 (final concentration: 5 nM) and, further, the addition of each of the 4 humanized hG019 antibodies (clone Nos: H01L02, H02L02, H02L03 and H04L02), which had been prepared in Example 5)-5-3, or the anti-CDH6 antibody NOV0712, which had been prepared in Reference Example 1, or human IgG1 (Calbiochem) as a negative control (final concentration: as shown in the abscissa of FIG. 7). The cells were left standing at 4° C. for 1 hour. Thereafter, the cells were washed twice with PBS supplemented with 5% FBS, followed by detection using a flow cytometer (Canto II; BD Biosciences). The data was analyzed using FlowJo (TreeStar, Inc.). The abscissa depicts the final concentration of the added unlabeled antibody, and the ordinate depicts the amount of the antibody bound based on mean fluorescence intensity. When unlabeled NOV0712 is added to cells supplemented with labeled NOV0712, the amount of the labeled antibody bound is decreased by replacement with the unlabeled antibody in an addition concentration-dependent manner because they compete with each other for binding to the same epitope. […] Likewise, when each of the 4 unlabeled humanized hG019 antibodies is added to cells supplemented with labeled H01L02, the amount of the labeled antibody bound is decreased by replacement with the unlabeled antibody in an addition concentration-dependent manner because they compete with each other for binding to the same epitope.

B1: humanized anti-CDH6 antibody H02L02 (antibody, human IgG1, kappa, V domains shown)
VH: EVQLVQSGAEVKKPGASVKVSCKASGYTFTRNFMHWVRQAPGQGLEWMGWIYPGDGETEYNQKFQGRVTITADRSTSTAYMELSSLRSEDTAVYFCARGVYGGFAGGYFDFWGQGTLVTVSS
VL: DIQMTQSPSSLSASVGDRVTITCKASQNIYKNLAWYQQKPGKAPKLLIYDANTLQTGVPSRFSGSGSGSDFTLTISSLQPEDFATYFCQQYYSGWAFGQGTKVEIKR
notes: hH02 heavy chain and hL02 light chain, human IgG1/kappa; also called H02L02 antibody; humanized hG019
binding result [1]: no binding (tested: not given)
IC50 (read off the curve) [2]: ~3 nM

B2: humanized anti-CDH6 antibody H04L02 (antibody, human IgG1, kappa, V domains shown)
VH: B1 VH with E1Q, V37I, N61A, I70L, F95Y
VL: B1 VL
notes: hH04 heavy chain and hL02 light chain, human IgG1/kappa; also called H04L02 antibody; humanized hG019
binding result [1]: no binding (tested: not given)
IC50 (read off the curve) [2]: ~10 nM

The remaining lines, values ahead:

binding result [1]: no binding (tested: not given)
IC50 (read off the curve) [2]: ~10 nM
B3: humanized anti-CDH6 antibody H02L03 (antibody, human IgG1, kappa, V domains shown)
VH: B1 VH
VL: B1 VL with P40L, K42E, A43G, S69T, F87Y
notes: hH02 heavy chain and hL03 light chain, human IgG1/kappa; also called H02L03 antibody; humanized hG019

binding result [1]: no binding (tested: not given)
IC50 (read off the curve) [2]: ~5 nM
B4: humanized anti-CDH6 antibody H01L02 (antibody, human IgG1, kappa)
heavy: not shown
light: DIQMTQSPSSLSASVGDRVTITCKASQNIYKNLAWYQQKPGKAPKLLIYDANTLQTGVPSRFSGSGSGSDFTLTISSLQPEDFATYFCQQYYSGWAFGQGTKVEIKRTVAAPSVFIFPPSDEQLKSGTASVVCLLNNFYPREAKVQWKVDNALQSGNSQESVTEQDSKDSTYSLSSTLTLSKADYEKHKVYACEVTHQGLSSPVTKSFNRGEC
notes: hH01 heavy chain and hL02 light chain, human IgG1/kappa; also called H01L02 antibody; humanized hG019
